Results published in PMC11533547 (Poultry Science, 2024).

B1: chicken PD-1 protein (receptor)
chain: MALGTSRTMWDSTEAALVVLCVLLLCCNPPLAGCHQVTLFPATLTRPAGSSATFICNISMENSSLEFNLNWYQKTNNSNPQKIAGIIRNIPQKKMEKYRLFNNTPVFKMEILNLHQNDSGFYYCGLITFSRSDKVVESSHSQLVVTEAPEKTNTIDEPSEEESSPPDHIKAVLLGTLLLAGVIVLLLFGYIIINNRRADVQKPSSGNTLAEVKPPVVPVPTVDYGVLEFQRDPHSQVPLETCPAEQTEYATIVFPEEKPITPERGKRHKDERTWQLPSQPC
modifications: labeled using the BLUE-NHS protein labeling kit (NanoTemper)

Tests used:
chicken PD-1 protein = biological target: B1; test: MST
chicken PD-L1 protein = chicken PD-L1 protein (chicken); test: MST

| Binder | Kd (chicken PD-1 protein) [nM] | Kd (chicken PD-L1 protein) [nM] |
| --- | --- | --- |
| DAGLYHCLIEYGGADYKTINLK [peptide gDK2-3] | 9.73 | – |
| B1 | – | 2.65 |
